Measurements published in paper PMC11264237 (Archives of biochemistry and biophysics, 2024).

T1: GST fused to the ATP8A1 tail (amino acids 1049-1163) (human, UniProt Q9Y2Q0 1049-1163)
T1 sequence (looked up): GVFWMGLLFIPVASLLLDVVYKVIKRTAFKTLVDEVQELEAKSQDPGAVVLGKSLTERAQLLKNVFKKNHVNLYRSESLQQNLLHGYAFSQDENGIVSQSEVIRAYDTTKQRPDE


Target: T1, GST fused to the ATP8A1 tail (amino …)
Experiment: pull-down

Row | Binder | % of total input bound to the beads
1 | BIG1 (natural protein, human (endogenous in HeLa), UniProt Q9Y6D6 1-1849, looked up) MYEGKKTKNMFLTRALEKILADKEVKKAHHSQLRKACEVALEEIKAETEKQSPPHGEAKAGSSTLPPVKSKTNFIEADKYFLPFELACQSKCPRIVSTSLDCLQKLIAYGHLTGNAPDSTTPGKKLIDRIIETICGCFQGPQTDEGVQLQIIKALLTAVTSQHIEIHEGTVLQAVRTCYNIYLASKNLINQTTAKATLTQMLNVIFARMENQALQEAKQMEKERHRQHHHLLQSPVSHHEPESPQLRYLPPQTVDHISQEHEGDLDLHTNDVDKSLQDDTEPENGSDISSAENEQTEADQATAAETLSKNEVLYDGENHDCEEKPQDIVQNIVEEMVNIVVGDMGEGTTINASADGNIGTIEDGSDSENIQANGIPGTPISVAYTPSLPDDRLSVSSNDTQESGNSSGPSPGAKFSHILQKDAFLVFRSLCKLSMKPLSDGPPDPKSHELRSKILSLQLLLSILQNAGPIFRTNEMFINAIKQYLCVALSKNGVSSVPEVFELSLSIFLTLLSNFKTHLKMQIEVFFKEIFLYILETSTSSFDHKWMVIQTLTRICADAQSVVDIYVNYDCDLNAANIFERLVNDLSKIAQGRGSQELGMSNVQELSLRKKGLECLVSILKCMVEWSKDQYVNPNSQTTLGQEKPSEQEMSEIKHPETINRYGSLNSLESTSSSGIGSYSTQMSGTDNPEQFEVLKQQKEIIEQGIDLFNKKPKRGIQYLQEQGMLGTTPEDIAQFLHQEERLDSTQVGEFLGDNDKFNKEVMYAYVDQHDFSGKDFVSALRMFLEGFRLPGEAQKIDRLMEKFAARYLECNQGQTLFASADTAYVLAYSIIMLTTDLHSPQVKNKMTKEQYIKMNRGINDSKDLPEEYLSAIYNEIAGKKISMKETKELTIPTKSSKQNVASEKQRRLLYNLEMEQMAKTAKALMEAVSHVQAPFTSATHLEHVRPMFKLAWTPFLAAFSVGLQDCDDTEVASLCLEGIRCAIRIACIFSIQLERDAYVQALARFTLLTVSSGITEMKQKNIDTIKTLITVAHTDGNYLGNSWHEILKCISQLELAQLIGTGVKPRYISGTVRGREGSLTGTKDQAPDEFVGLGLVGGNVDWKQIASIQESIGETSSQSVVVAVDRIFTGSTRLDGNAIVDFVRWLCAVSMDELLSTTHPRMFSLQKIVEISYYNMGRIRLQWSRIWEVIGDHFNKVGCNPNEDVAIFAVDSLRQLSMKFLEKGELANFRFQKDFLRPFEHIMKRNRSPTIRDMVVRCIAQMVNSQAANIRSGWKNIFSVFHLAASDQDESIVELAFQTTGHIVTLVFEKHFPATIDSFQDAVKCLSEFACNAAFPDTSMEAIRLIRHCAKYVSDRPQAFKEYTSDDMNVAPEDRVWVRGWFPILFELSCIINRCKLDVRTRGLTVMFEIMKTYGHTYEKHWWQDLFRIVFRIFDNMKLPEQQTEKAEWMTTTCNHALYAICDVFTQYLEVLSDVLLDDIFAQLYWCVQQDNEQLARSGTNCLENVVILNGEKFTLEIWDKTCNCTLDIFKTTIPHALLTWRPNSGETAPPPPSPVSEKPLDTISQKSVDIHDSIQPRSVDNRPQAPLVSASAVNEEVSKIKSTAKFPEQKLFAALLIKCVVQLELIQTIDNIVFFPATSKKEDAENLAAAQRDAVDFDVRVDTQDQGMYRFLTSQQLFKLLDCLLESHRFAKAFNSNNEQRTALWKAGFKGKSKPNLLKQETSSLACGLRILFRMYMDESRVSAWEEVQQRLLNVCSEALSYFLTLTSESHREAWTNLLLLFLTKVLKISDNRFKAHASFYYPLLCEIMQFDLIPELRAVLRRFFLRIGVVFQISQPPEQELGINKQ | 24 % of total input
2 | BIG2 (natural protein, human (endogenous in HeLa), UniProt Q9Y6D5 1-1785, looked up) MQESQTKSMFVSRALEKILADKEVKRPQHSQLRRACQVALDEIKAEIEKQRLGTAAPPKANFIEADKYFLPFELACQSKSPRVVSTSLDCLQKLIAYGHITGNAPDSGAPGKRLIDRIVETICSCFQGPQTDEGVQLQIIKALLTAVTSPHIEIHEGTILQTVRTCYNIYLASKNLINQTTAKATLTQMLNVIFTRMENQVLQEARELEKPIQSKPQSPVIQAAAVSPKFVRLKHSQAQSKPTTPEKTDLTNGEHARSDSGKVSTENGDAPRERGSSLSGTDDGAQEVVKDILEDVVTSAIKEAAEKHGLTEPERVLGELECQECAIPPGVDENSQTNGIADDRQSLSSADNLESDAQGHQVAARFSHVLQKDAFLVFRSLCKLSMKPLGEGPPDPKSHELRSKVVSLQLLLSVLQNAGPVFRTHEMFINAIKQYLCVALSKNGVSSVPDVFELSLAIFLTLLSNFKMHLKMQIEVFFKEIFLNILETSTSSFEHRWMVIQTLTRICADAQCVVDIYVNYDCDLNAANIFERLVNDLSKIAQGRSGHELGMTPLQELSLRKKGLECLVSILKCMVEWSKDLYVNPNHQTSLGQERLTDQEIGDGKGLDMARRCSVTSMESTVSSGTQTTVQDDPEQFEVIKQQKEIIEHGIELFNKKPKRGIQFLQEQGMLGTSVEDIAQFLHQEERLDSTQVGDFLGDSARFNKEVMYAYVDQLDFCEKEFVSALRTFLEGFRLPGEAQKIDRLMEKFAARYIECNQGQTLFASADTAYVLAYSIIMLTTDLHSPQVKNKMTKEQYIKMNRGINDSKDLPEEYLSSIYEEIEGKKIAMKETKELTIATKSTKQNVASEKQRRLLYNLEMEQMAKTAKALMEAVSHAKAPFTSATHLDHVRPMFKLVWTPLLAAYSIGLQNCDDTEVASLCLEGIRCAIRIACIFGMQLERDAYVQALARFSLLTASSSITEMKQKNIDTIKTLITVAHTDGNYLGNSWHEILKCISQLELAQLIGTGVKTRYLSGSGREREGSLKGHTLAGEEFMGLGLGNLVSGGVDKRQMASFQESVGETSSQSVVVAVDRIFTGSTRLDGNAIVDFVRWLCAVSMDELASPHHPRMFSLQKIVEISYYNMNRIRLQWSRIWHVIGDHFNKVGCNPNEDVAIFAVDSLRQLSMKFLEKGELANFRFQKDFLRPFEHIMKKNRSPTIRDMAIRCIAQMVNSQAANIRSGWKNIFAVFHQAASDHDGNIVELAFQTTCHIVTTIFQHHFPAAIDSFQDAVKCLSEFACNAAFPDTSMEAIRLIRFCGKYVSERPRVLQEYTSDDMNVAPGDRVWVRGWFPILFELSCIINRCKLDVRTRGLTVMFEIMKSYGHTFEKHWWQDLFRIVFRIFDNMKLPEQLSEKSEWMTTTCNHALYAICDVFTQFYEALNEVLLSDVFAQLQWCVKQDNEQLARSGTNCLENLVISNGEKFSPEVWDETCNCMLDIFKTTIPHVLLTWRPVGMEEDSSEKHLDVDLDRQSLSSIDKNPSERGQSQLSNPTDDSWKGRPYANQKLFASLLIKCVVQLELIQTIDNIVFYPATSKKEDAEHMVAAQQDTLDADIHIETEDQGMYKYMSSQHLFKLLDCLQESHSFSKAFNSNYEQRTVLWRAGFKGKSKPNLLKQETSSLACCLRILFRMYVDENRRDSWEEIQQRLLTVCSEALAYFITVNSESHREAWTSLLLLLLTKTLKINDEKFKAHASMYYPYLCEIMQFDLIPELRAVLRKFFLRIGVVYKIWIPEEPSQVPAALSPVW | 18.5 % of total input
